# Results as given in the supplement of paper PMC9170038.
# Test system: MS2 coat protein
# Test: apparent KD of MS2 coat protein; designed switch direction (-1 OFF switch, 1 ON switch): -1; higher = weaker reporter binding
# Method in brief: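 Each step of the titration lasted 0.8–1.5 h at the lowest concentration and 10–20 min at the highest. The protein, SNAP-549-labelled MS2 coat protein, went from 0.7 or 1.5 nM doubling to 3 µM over RNA switches transcribed on Illumina chips by stalled E. coli RNA polymerase. Normalised cluster fluorescence was curve-fitted, and the per-design median over clusters is given as apparent KD.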
# [1] = input ligand: microRNA oligo, concentration not stated
# [2] = Eterna round: R95, input ligand: FMN 200 uM
# [3] = Eterna round: R95, input ligand: microRNA oligo, concentration not stated
# [4] = Eterna round: R95, input ligand: none
Sequence,apparent KD of MS2 coat protein (input ligand: FMN 200 uM) [nM],apparent KD of MS2 coat protein [1] [nM],apparent KD of MS2 coat protein (input ligand: none) [nM],apparent KD of MS2 coat protein [2] [nM],apparent KD of MS2 coat protein [3] [nM],apparent KD of MS2 coat protein [4] [nM]
"CUGAACCCGGUAGGAUAUAUUGUGGGCGGGCGUGGAACGACAUGAGGAUCACCCAUGUGAUUGAGGUAGAAGGGCCGAGAGGUU [Excl-NG2-LRO17] (Eterna round: R96, puzzle: Exclusion NG 2)",42.6,31,42.8,–,–,–
"CUGACGUCAGGAUAUAGCAUACACUGACUAGAUGGACAGGGUUAGAAGGGACAUGAGGAUCACCCAUGUGGUUU [Eternabot (L1) Solution 81] (Eterna round: R97, puzzle: Exclusion 4)",56.3,–,50.5,–,–,–
"CUGAGCAGACGGAAAUCCAACAUGAGGAUCACCCAUGUCUCAAAAGCUUUUUGCUUGUCUUAUUCUCCUCUGUUCUC [Edtile] (puzzle: Sensor v3, turn-off variant 1)",–,–,–,13.8,71.2,12.9
"CUGAGCAGACGGAGAUCCAACAUGAGGAUCACCCAUGUCUCAAAAGCUCUUUGCUCGUCUUAUCCUCCUCUGUUCUC [Leriedor] (puzzle: Sensor v3, turn-off variant 1)",–,–,–,31.5,333,30.1
"CUGAGCAGACGGAGAUCCAACAUGAGGAUCACCCAUGUCUCAAAAGCUUUUUGCUUGUCUUAUUCUCCUCUGUUCUC [Bieda] (puzzle: Sensor v3, turn-off variant 1)",–,–,–,13.5,35.5,11.1
"CUGAGGUAGCGGUCCUAUGACAUGAGGAUCACCCAUGUACCUUGCUAUAAGCUUUUUGCUCGUCUUAUGAUUCUCGG [JL Atriat mod 7] (puzzle: Sensor v3, turn-off variant 1)",–,–,–,246,713,302
"CUGAGUAGUCAGGAUAUGCUGUACAAAAGUACAGCAGAAGGGAUUACAUGAGGAUCACCCAUGUGAACUUCAUG [)mei Ex6 B21] (Eterna round: R97, puzzle: Exclusion 6)",681,–,652,–,–,–
"CUGAUGUGAGGAUAUCUACGCCAUGUCUUUGACAUGGCGCAAGAGAAGGCACAUGAGGAUCACCCAUGUACUUC [jl-ex4-4.41 ViennaUCT mod] (Eterna round: R97, puzzle: Exclusion 4)",143,–,27.9,–,–,–
"CUGCUCCGUGUAGGAUAUGCGCGCAACCAACGCGCAGAAGGACAUGAGGAUCACCCAUGUAUGUUAUUAUCACGUGAGGCGCAA [Design 32] (Eterna round: R96, puzzle: Exclusion NG 1)",25.7,13.8,18.5,–,–,–
"CUGCUCCGUGUAGGAUAUGCGCGCACCCACCGCGCAGAAGGACAUGAGGAUCACCCAUGUAUGUUAUUAUCACGUGAGGCGCAG [Design 35] (Eterna round: R96, puzzle: Exclusion NG 1)",29.6,13.6,19.2,–,–,–
"CUGCUGAAGCUUUGCUUUAGUCGUACAUGAGGAUCACCCAUGUAGGAUAUGGUAGGCUUUGCUUACUAGAAGGAUAGAGUGAUC [salish99_ExNG3_r04_604] (Eterna round: R96, puzzle: Exclusion NG 3)",72,82.4,61.9,–,–,–
"CUGCUGGAGCGGCGCUUUGGUCGUACAUGAGGAUCACCCAUGUAGGAUAUGGUAAAAUUCGCCUGCUAGAAGGAUAGAGUGGUC [salish99_ExNG3_r04_617] (Eterna round: R96, puzzle: Exclusion NG 3)",135,62.5,88.1,–,–,–
